Legend:
[1] = biological target: control CAR 2, expressed on T cells; assay: flow cytometry histogram; hybridoma clonal supernatant on control CAR 2-expressing T cells, detected with FITC goat anti-rabbit F(ab')2; fraction of events in the CAR+ gate
[2] = biological target: control CAR3, expressed on T cells; assay: flow cytometry histogram; hybridoma clonal supernatant on control CAR 3-expressing T cells, detected with FITC goat anti-rabbit F(ab')2; fraction of events in the CAR+ gate; parameters: unit not given here
[3] = biological target: anti-CLL-1 CAR (chimeric antigen receptor presenting the anti-CLL-1 scFv), expressed on primary human T cells; assay: flow cytometry histogram; hybridoma clonal supernatant on anti-CLL-1 CAR-transduced primary human T cells, detected with FITC goat anti-rabbit F(ab')2; fraction of events in the CAR+ gate

Row | CAR+ [1] | CAR+ [2] | CAR+ [3] | Binder
1 | 0.053 | 0.011 | 57.7 | KIP-10 Clone 147-1 (antibody, V domains shown) VH: QEQLEESGGDLVKPEGSLTLTCTASGFSFSGDYYMCWVRQAPGKGLEWIACIYVGSYIYSFYASWAKGRFTISRTSSTTVTLQMTSLTAADTATYFCARDPFATDSDVVSLWGPGTLVTVSS VL: AVVLTQTPASVSAAVGGTVTINCQASQSISTVLAWYQQKPGQRPKLLIYWASTLASGVPSRFKGSGSGTQFTLTISGVECDDAATYYCAGYKSYSNDDGAFGGGTEVVVK
2 |  | 0.011 | 57.7 | KIP-10 Clone 180-2 (antibody, V domains shown) VH: QSLEESGGGLVQPGGSLKLSCKASGFIFSDNYYMCWVRQAPGKGLELIACIYGGHIDTTYYASWVSGRFTSSKTSSTTVTLQLTSLTAADTATYFCARRTIYDDNDDYSYALHLWGPGTLVTVSS VL: ALVMTQTPSSVSEPVGGTVTINCQASQSISNLLAWYQQKPGQPPKLLIYGASNLESGVPSRFKGSGSGTEYTLTISGVECADAATYYCQQGDSSSNLDNTFGGGTEVVVK
3 | 0.021 | 0.011 | 55.8 | KIP-10 Clone 148-4 (antibody, V domains shown) VH: QEQLEESGGDLVKPEGSLTLTCTASGFSFSGSFDVCWVRQAPGKGLEWIACIVVDSSDRTWYASWAKGRFTISKPSSTTVTLQMTSLTAADTATYFCARNDDTSGWGFNLWGPGTLVTVSS VL: DVTMTQTPASVSEPVGGTVTIKCQASQSIGSALAWYQQKPGQPPKLLIWTASNLASGVSSRFKGSRSGTDFTLTISDLECADAATYYCQCTYYGSSYINAFGGGTEVVVK
4 | 0.021 | 0.011 | 55.6 | KIP-10 Clone 160-1 (antibody, V domains shown) VH: QSLEESGGDLVKPGASLTLTCTASGFSFSSNYFVCWVRQAPGKGLEWVGCINPGSGRTYSASWAKGRFTISKSSSTTVTLQMTSLTAADTATYFCARDRPGSDDYYMRDLWGPGTLVTVSS VL: DPVMTQTPASVSEPVGGTVTINCQASESIGSSLAWYQQKPGQPPKLLIYAASTLASGVSSRFKGSGSGTQFTLTISDLECADAATYYCQCSYYLNTYVGNPFGGGTEVVVK

Second part, the binder before the results:

Row | Binder | CAR+ [1] | CAR+ [2] | CAR+ [3]
5 | KIP-10 Clone 103-2 (antibody, V domains shown) VH: QSVEESGGRLVTPGTPLTLTCTVSGFSLGSYYMSWVRQAPGKGLEWIGIIYQSGNTDYASWAKGRFTISKTSSTTVDLKMTSLTTEDTATYFCAREGYAGYVGYSYNIWGPGTLVTVSS VL: AYDMTQTPASVSAAVGGTVSINCQASEDIESYLAWYQQRPGQPPKLLIYSASTLASGVSSRFKGSGSGTQFTLTISDLECADAATYYCQQGASSNDVEEPFGGGTEVVVK | 0.011 |  | 55.9
6 | KIP-10 Clone 63-2 (antibody, V domains shown) VH: QQQLEESGGGLVKPGGTLTLTCKASGFSFSSDYDMCWVRQAPGKGLEWIACIYAGSSDNTYYATWAKGRFTISKTSSTTVTLQMTSLTAADTATYFCARDTADINFYFKLWGPGTLVTVSS VL: DIVMTQTPASVSAAVGGTVTIKCQASESVSRWLAWYQQKPGQPPNLLIYSASTLASGVPSRFRGSGSGTEYTLTISDLECADAATYYCQGGYYSGGETYHNSFGGGTEVVVK | 0.021 |  | 57.8
7 | KIP-10 Clone 15-2 (antibody, V domains shown) VH: QEQLVESGGGLVKPGASLTLTCKASGFSFSVGYDMCWVRQAPGKGLEWIACIDTDSSSRTWNASWAKGRFTISKPSSTTVTLQMTSLTAADTATYFCARNDDTSGWGSKLWGPGTLVTVSS VL: DVVMTQTPASVSEPVGGTVTIKCQASQTIGSALAWYQQKPGQPPKLLIYTASNLASGVSSRFKGSRSGTEFTLTISDLECADAATYYCQHTFYGTSYVDAFGGGTEVVVK | 0.063 | 0.011 | 58

Reference: patent publication US20220396628A1
